Measured values published in patent publication US20250011430A1 (GUANGZHOU BIO GENE TECHNOLOGY, published 2025).

biological target: T1, B7H3 on cells (B7H3 on HEK293 cells; B7H3 expressed from plasmid on HEK-293T and QT6 cells) (human, UniProt Q5ZPR3 29-534); assay: flow cytometry on HEK293 cells, FITC-labelled secondary antibody; y axis without title
T1 construct: whole, on cells; also called HEK293 B7H3 proteins; human B7H3
T1 sequence (looked up): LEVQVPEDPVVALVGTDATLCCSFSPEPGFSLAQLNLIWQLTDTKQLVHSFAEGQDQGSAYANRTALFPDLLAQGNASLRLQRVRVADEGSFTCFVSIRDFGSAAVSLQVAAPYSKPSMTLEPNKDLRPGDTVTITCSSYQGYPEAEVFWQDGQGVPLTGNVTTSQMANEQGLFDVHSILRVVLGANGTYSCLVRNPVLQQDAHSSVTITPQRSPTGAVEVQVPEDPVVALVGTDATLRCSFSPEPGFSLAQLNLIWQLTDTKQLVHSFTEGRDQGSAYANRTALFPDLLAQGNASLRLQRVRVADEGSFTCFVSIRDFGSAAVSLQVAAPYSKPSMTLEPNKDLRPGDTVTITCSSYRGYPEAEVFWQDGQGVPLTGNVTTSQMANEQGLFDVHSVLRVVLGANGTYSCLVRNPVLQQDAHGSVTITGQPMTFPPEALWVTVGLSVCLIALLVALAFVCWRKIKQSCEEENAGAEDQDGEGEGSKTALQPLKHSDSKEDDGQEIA
Method: 5×10⁵ HEK293 cells were resuspended with PBS+5% BSA and incubated for 30 min at 4° C. Different concentrations of antibody (1 μg/mL to 0.01 μg/mL, 10-fold gradient dilution) were added and incubated for 60 min at 4° C. After centrifugation and washing, a PBS+5% BSA solution containing an FITC-labeled secondary antibody (1:200, sigma, F9512) was added and incubated on ice for 30 min in the dark. Cells were washed three times before the flow cytometry analysis.
Using the flow cytometry method, the control antibodies (huM30, Eno) and the 2B8, 26B8, 23H1 and 6F7 antibody were tested for their binding abilities to HEK293 B7H3 proteins at a final concentration of 1 μg/mL, 0.1 μg/mL and 0.01 μg/mL, respectively. Compared with the control antibodies, the 2B8, […], 23H1 and 6F7 antibody each have the same or better binding ability to the HEK293 B7H3 proteins.

Row | Binder | binding result
1 | anti-B7H3 antibody 23H1 (antibody, V domains shown) VH: EVKLVESGGGLVQPGGSLRLSCATSGFTFTDYYMSWVRQPPGKALEWLGFIRNKVNDYTTEYSVSVKGRFTISRDNSQTILYLQMNTLRAEDSATYYCARDSPYRPFAYWGQGTLVTVSA VL: DIVMTQSPSSLTVTAGENVTMSCKSSQTLLNNGNQKNFLTWYQQKPGQPPKLLIYLASTRESGVPDRFTGSGSGTDFTLTISSVQAEDLAVYYCQNDYTYPLTFGAGTKLELKR | binds

biological target: T1, B7H3 on cells (B7H3 on HEK293 cells; …); assay: flow cytometry on HEK293 cells
Method: (§1) 2×10⁵ HEK293 cells were resuspended with PBS+5% BSA and incubated for 30 min at 4° C. Different concentrations of humanized antibody (5 μg/mL to 0.002286 μg/mL, 3-fold gradient dilution) were added and incubated for 60 min at 4° C. After centrifugation and washing, a PBS+5% BSA solution containing an FITC-labeled secondary antibody (1:200, sigma, F9512) was added and incubated on ice for 30 min in the dark. Cells were washed three times before the flow cytometry analysis. EC50 was calculated using GraphPad software.

Row | Binder | EC50
2 | chimeric antibody ch2B8 (antibody, V domains shown) VH: QVQLQQSGPELVRPGVSVKISCKVSGYTFTDGAMHWVKRSHAKSLEWIGIINTNSGNTNYNQKFQGKATMTVDKSSSTAYMELARLTSEDSAIYYCARGVFYYGYGAWFAYWGQGTLVTVSA VL: DVQITQSPSYLTASPGETIIINCRASKTISNYLAWYQEKPGKTNKLLIYSGSTLQSGIPSRFSGSGSDTDFTLTISSLEPEDFAMYYCQQHHEYPLTFGAGTKLELKR | 0.132 µg/mL
3 | chimeric antibody ch26B6 (antibody, V domains shown) VH: EVQLQQSGPELVKPGASVKISCKTSGYAFTEYTMHWVKQSQGKSLEWIGGINPNTGGTTYNQKFNGKATLTVDRSSSTAYMELRSLTSEDSAVYYCTRPYRDDGGFHWYFDVWGAGTAVTVSS VL: QIVLTQSPAVMSTSPGEKVTMTCSASSSVSYMQWYQQKSGTSPKRWIYDTSKLTSGVPARFSGSGSGTSYSLTISSMEAEDAATYYCQQWSSNPLTFGAGTKLELKR | 0.224 µg/mL
4 | humanized 26B6 (antibody, V domains shown, also called hz26B6; h26B6) VH: EVQLVQSGAEVKKPGASVKVSCKASGYTFTEYTMHWVRQAPGQGLEWIGGINPNTGGTTYNQKFNGRVTMTRDTSISTAYMELSSLRSEDTAVYYCTRPYRDDGGFHWYFDVWGQGTLVTVSS VL: EIVLTQSPATLSLSPGERATLSCSASSSVSYMQWYQQKPGLAPRLLIYDTSKLTSGIPDRFSGSGSGTDFTLTISRLEPEDFAVYYCQQWSSNPLTFGGGTKVEIKR | 0.306 µg/mL
5 | humanized 6F7 with light chain variable region LV1 (antibody, V domains shown, also called hz6F7L1; h6F7H1L1) VH: EVQLVESGGGLVQPGGSLRLSCAASGFTFTDYYMSWVRQAPGKGLEWVAFIRNKANGYTTEYSASVKGRFTISRDDSKNSLYLQMNSLRAEDTAVYYCARDSHYRPFAYWGQGTLVTVSS VL: DIVMTQSPLSLPVTPGEPASISCKSSQSLLNSGNQNNYLTWYLQKPGQSPQLLIYLASTRDSGVPDRFSGSGSGTDFTLKISRVEAEDVGVYYCQNDYTYPLTFGGGTKVEIKR | 0.604 µg/mL
6 | humanized 6F7 with light chain variable region LV2 (antibody, V domains shown, also called hz6F7L2; h6F7H1L2) VH: EVQLVESGGGLVQPGGSLRLSCAASGFTFTDYYMSWVRQAPGKGLEWVAFIRNKANGYTTEYSASVKGRFTISRDDSKNSLYLQMNSLRAEDTAVYYCARDSHYRPFAYWGQGTLVTVSS VL: DIVMTQSPDSLAVSLGERATINCKSSQSLLNSGNQNNYLTWYQQKPGQPPKLLIYLASTRDSGVPDRFSGSGSGTDFTLTISSLQAEDVAVYYCQNDYTYPLTFGGGTKVEIKR | 0.41 µg/mL
7 | humanized 2B8 (antibody, V domains shown, also called hz2B8; h2B8) VH: QVQLVQSGAEVKKPGASVKVSCKVSGYTFTDGAMHWVRQAPGQGLEWIGIINTNSGNTNYNQKFQGRVTMTRDTSISTAYMELSRLRSEDTAVYYCARGVFYYGYGAWFAYWGQGTLVTVSS VL: DIQLTQSPSFLSASVGDRVTINCRASKTISNYLAWYQQKPGKAPKLLIYSGSTLQSGVPSRFSGSGSGTDFTLTISSLQPEDFATYYCQQHHEYPLTFGGGTKVEIKR | 0.0779 µg/mL

biological target: T1, B7H3 on cells (B7H3 on HEK293 cells; …); assay: flow cytometry on HEK293 cells (text value, conflicts with Table 2)
Method: as §1

Row | Binder | EC50
8 | chimeric antibody ch6F7 (antibody, V domains shown) VH: EVKLVESGGGLVQPGGSLRLSCATSGFTFTDYYMSWVRQPPGKALEWLGFIRNKANGYTTEYSASVKGRFTISSDDSQSILYLQMNTLRAEDSATYYCARDSHYRPFAYWGQGTLVTVSA VL: DIQMTQSPSSLTVTAGEKVTMSCKSSQSLLNSGNQNNYLTWYQQKPGQPPKLLIYLASTRDSGVPDRFTGSGSGTDFTLTISSVQAEDLAVYYCQNDYTYPLTFGAGTKLELKR | 0.224 µg/mL
9 | chimeric antibody ch26B6 (antibody, V domains shown) VH: EVQLQQSGPELVKPGASVKISCKTSGYAFTEYTMHWVKQSQGKSLEWIGGINPNTGGTTYNQKFNGKATLTVDRSSSTAYMELRSLTSEDSAVYYCTRPYRDDGGFHWYFDVWGAGTAVTVSS VL: QIVLTQSPAVMSTSPGEKVTMTCSASSSVSYMQWYQQKSGTSPKRWIYDTSKLTSGVPARFSGSGSGTSYSLTISSMEAEDAATYYCQQWSSNPLTFGAGTKLELKR | 0.232 µg/mL
